Each block holds one binder with its values, some of them ahead of it.
Columns and labels:
tauΔ2-18 [1] = target: T1, tauΔ2-18 (UniProt P10636-8 1-441); test: Western blot
T1 construct: Deletion of residues 2-18; also called tau that lacks 2-18 domain; recombinant tauΔ2-18

tauΔ2-18 [2] = target: T1, tauΔ2-18; test: blot

T1 sequence (P10636 other isoform, or with tags, fused parts or gaps mutant limits assumed): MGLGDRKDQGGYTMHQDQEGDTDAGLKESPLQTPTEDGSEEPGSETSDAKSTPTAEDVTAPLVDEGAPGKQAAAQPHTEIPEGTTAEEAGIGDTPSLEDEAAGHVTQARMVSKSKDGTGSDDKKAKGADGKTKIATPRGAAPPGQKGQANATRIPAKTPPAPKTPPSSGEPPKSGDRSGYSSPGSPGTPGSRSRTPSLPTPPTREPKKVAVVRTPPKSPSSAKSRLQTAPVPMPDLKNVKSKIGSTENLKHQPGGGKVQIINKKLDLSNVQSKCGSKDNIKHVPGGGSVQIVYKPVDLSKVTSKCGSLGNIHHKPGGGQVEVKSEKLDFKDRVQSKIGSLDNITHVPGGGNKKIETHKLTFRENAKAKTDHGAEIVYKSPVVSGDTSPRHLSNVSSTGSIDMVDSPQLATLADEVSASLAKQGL

binding result (tauΔ2-18 [1]): no binding
B1: mouse monoclonal antibody 1C9 (antibody, V domains shown)
VH: EVQLQQSGTVLARPGASVKMSCKTSGYTFTNHWMHWVKQRPGQGLEWIGAIDPGNSDTSYNQKFKGQAKLTAVTSASTAFMELSSLTNEDSAVYYCTRRDFFGGEYAVDYWGQGTSVTVSS
VL: DVVMTQTPLSLPVSLGDQASISCRSSQSLVHSNGNTYLHWYLQKPGQSPKLLIYKVSNRFSGVPDRFSGSGSGTDFTLKISRVEAEDLGVYFCSQSTHVPWTFGGGTKLEIK
notes: also called 1C9 mAb; 1C9 moAb

binding result (tauΔ2-18 [2]): no binding
B2: Armanezumab (antibody, V domains shown)
VH: QVQLVQSGAEVKKPGASVKVSCKASGYTFTNHWMHWVRQAPGQGLEWMGAIDPGNSDTSYNQKFKGRVTMTRDTSTSTVYMELSSLRSEDTAVYYCARRDFFGGEYAVDYWGQGTLVTVSS
VL: DIVMTQSPLSLPVTPGEPASISCRSSQSLVHSNGNTYLHWYLQKPGQSPQLLIYKVSNRFSGVPDRFSGSGSGTDFTLKISRVEAEDVGVYYCSQSTHVPWTFGQGTKVEIKR
notes: Fully humanized IgG derived from 1C9; also called humanized 1C9
